The results in this text go back to the RNAGym collection of RNA variant scans (doi:10.1093/molbev/msab373).

Sequences and labels used below:
B1: Azoarcus group I ribozyme (parent)
chain: GUGCCUUGCGCCGGGAAACCACGCAAGGGAUGGUGUCAAAUUCGGCGAAACCUAAGCGCCCGCCCGGGCGUAUGGCAACGCCGAGCCAAGCUUCGGCGCCUGCGCCGAUGAAGGUGUAGAGACUAGACGGCACCCACCUAAGGCAAACGCUAUGGUGAAGGCAUAGUCCAGGGAGUGGCGAAAGUCACACAAACCGG

In this data set the parent is B1. Nature of the data set: reverse-splicing fitness (ratio to wild type); higher = more active; in vitro selection; Mg2+ level not given. The gist of the method: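 An in vitro group I ribozyme library with randomized positions was T7-transcribed and gel-purified. In triplicate, 10 pmol RNA in EPPS pH 7.5 was reacted with 50 pmoles of a 30-nt RNA substrate for 1 h at 37 °C across several added MgCl2 levels (1–48 mM), then stopped with EDTA. Products were reverse transcribed from a substrate-complementary primer, PCR-amplified and sequenced (HiSeq 4000). Fitness is a variant's read proportion after selection over that before, normalised to wild type.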
With C82G A111C A120G C150A C169G, the reverse-splicing fitness came out at 0.00935.

Take C82G A111C A120G C150A C169U: the reverse-splicing fitness stood at 0.00859.

Consider C82G A111C A120G C150A C169A, for which the reverse-splicing fitness was 0.0116.

Take C82G A111C A120G A145U C150U: the reverse-splicing fitness was 0.0124.

Consider C82G A111C A120U A145U C150A U176A, for which the reverse-splicing fitness is 0.00533.

Take C82G A111C A120U A145U C150A U176C: the reverse-splicing fitness was 0.00583.

As to C82G A111C A120U A145U C150A U176G, the reverse-splicing fitness amounted to 0.00269.

C82G A111C A120U A145U C150A: the reverse-splicing fitness amounted to 0.00799.

Consider C82G A111C A120U A145U C150G, for which the reverse-splicing fitness was determined as 0.00826.

C82G A111C A120U A145U C150U: the reverse-splicing fitness worked out at 0.0307.

In the case of C82G A111C A120G C150A C169U U176A, the reverse-splicing fitness was determined as 0.022.

Consider C82G A111C A120G C150A C169U U176C, for which the reverse-splicing fitness was found to be 0.0171.

In the case of C82G A111C A120G C150A C169U U176G, the reverse-splicing fitness came out at 0.00512.

As for C82G A111C A120U C150U U176A, the reverse-splicing fitness was found to be 0.00878.

With C82G A111C A120U C150U U176C, the reverse-splicing fitness came to 0.0132.

Consider C82G A111C A120G C150G C169U U176G, for which the reverse-splicing fitness turned out to be 0.00589.

With C82G A111C A120G C150G C169U U176A, the reverse-splicing fitness stood at 0.0081.

Regarding C82G A111C A120G C150G C169U U176C, the reverse-splicing fitness was determined as 0.0132.

As for C82G A111C A120G U176C, the reverse-splicing fitness is 0.0226.

With C82G A111C A120G U176A, the reverse-splicing fitness is 0.0162.

Turning to C82G A111C A120G U176G, the reverse-splicing fitness came out at 0.00753.

Turning to C82G A111C A120U C150U C169G, the reverse-splicing fitness is 0.00542.

With C82G A111C A120U C150U C169A, the reverse-splicing fitness was 0.00635.

As to C82G A111C A120U C150U C169U, the reverse-splicing fitness stood at 0.00568.

As to C82G A111C A120U A145G C150U C169A, the reverse-splicing fitness worked out at 0.00785.

Turning to C82G A111C A120U A145G C150U C169G, the reverse-splicing fitness worked out at 0.00657.

With C82G A111C A120U A145G C150U C169U, the reverse-splicing fitness came out at 0.00642.

C82G A111C A120U C150A U176C: the reverse-splicing fitness worked out at 0.00693.

In the case of C82G A111C A120U C150A U176G, the reverse-splicing fitness stood at 0.00333.

With C82G A111C A120U C150A U176A, the reverse-splicing fitness came to 0.00581.

Turning to C82G A111C A120G C169G U176A, the reverse-splicing fitness was found to be 0.0184.

Turning to C82G A111C A120G C169G U176G, the reverse-splicing fitness worked out at 0.0044.

For C82G A111C A120G C169G U176C, the reverse-splicing fitness was 0.0224.

Regarding C82G A111C A120U C150U C169G U176C, the reverse-splicing fitness stood at 0.00301.

As to C82G A111C A120U C150U C169G U176G, the reverse-splicing fitness was 0.00259.

Consider C82G A111C A120U C150U C169G U176A, for which the reverse-splicing fitness was found to be 0.00503.

As for C82G A111C A120U A145G C150A C169G U176G, the reverse-splicing fitness stood at 0.00277.

Regarding C82G A111C A120U A145G C150A C169G U176C, the reverse-splicing fitness was found to be 0.00534.

C82G A111C A120U A145G C150A C169G U176A: the reverse-splicing fitness came to 0.00649.

Take C82G A111C A120U A145U C150A C169U: the reverse-splicing fitness was found to be 0.00311.

Regarding C82G A111C A120U A145U C150A C169A, the reverse-splicing fitness turned out to be 0.00247.

As for C82G A111C A120U A145U C150A C169G, the reverse-splicing fitness stood at 0.00295.

For the variant C82G A111C A120G C150G U176A, the reverse-splicing fitness stood at 0.00843.

Take C82G A111C A120G C150G U176C: the reverse-splicing fitness stood at 0.0153.

For the variant C82G A111C A120G C150G U176G, the reverse-splicing fitness stood at 0.00284.

On to C82G A111C A120U A145G C150A U176C, for which the reverse-splicing fitness came to 0.0086.

As to C82G A111C A120U A145G C150A U176G, the reverse-splicing fitness worked out at 0.00353.

Take C82G A111C A120U A145G C150A U176A: the reverse-splicing fitness stood at 0.00773.

As to C82G A111C A120U A145C C150G C169G U176G, the reverse-splicing fitness was found to be 0.00233.

Turning to C82G A111C A120U A145C C150G C169G U176A, the reverse-splicing fitness came to 0.00317.

In the case of C82G A111C A120U A145C C150G C169G U176C, the reverse-splicing fitness amounted to 0.00245.

Regarding C82G A111C A120U A145C C150G U176G, the reverse-splicing fitness is 0.00221.

For the variant C82G A111C A120U A145C C150G U176A, the reverse-splicing fitness came to 0.00364.

For C82G A111C A120U A145C C150G U176C, the reverse-splicing fitness is 0.00457.

With C82G A111C A120U A145U C150U C169U U176A, the reverse-splicing fitness was 0.0031.

In the case of C82G A111C A120U A145U C150U C169U U176G, the reverse-splicing fitness was determined as 0.00235.

In the case of C82G A111C A120U A145U C150U C169U U176C, the reverse-splicing fitness was found to be 0.00311.

Regarding C82G A111C A120U A145U U176C, the reverse-splicing fitness worked out at 0.0197.

As for C82G A111C A120U A145U U176G, the reverse-splicing fitness worked out at 0.00533.

As to C82G A111C A120U A145U U176A, the reverse-splicing fitness amounted to 0.0115.

On to C82G A111C A120U C150U C169A U176G, for which the reverse-splicing fitness came to 0.00243.

Regarding C82G A111C A120U C150U C169A U176C, the reverse-splicing fitness was determined as 0.00319.

With C82G A111C A120U C150U C169A U176A, the reverse-splicing fitness was 0.00515.

In the case of C82G A111C A120U A145C C150U C169G U176C, the reverse-splicing fitness was 0.00305.

Turning to C82G A111C A120U A145C C150U C169G U176G, the reverse-splicing fitness is 0.00262.

In the case of C82G A111C A120U A145C C150U C169G U176A, the reverse-splicing fitness was 0.00257.

On to C82G A111C A120G C150U U176C, for which the reverse-splicing fitness came out at 0.0217.

Consider C82G A111C A120G C150U U176A, for which the reverse-splicing fitness came out at 0.0119.

C82G A111C A120G C150U U176G: the reverse-splicing fitness was 0.00715.

On to C82G A111C A120U A145G C150A C169A, for which the reverse-splicing fitness was 0.00787.

Take C82G A111C A120U A145G C150A C169U: the reverse-splicing fitness was found to be 0.00514.

On to C82G A111C A120U A145G C150A C169G, for which the reverse-splicing fitness worked out at 0.0054.

Regarding C82G A111C A120U C150G U176G, the reverse-splicing fitness was determined as 0.00279.

As for C82G A111C A120U C150G U176C, the reverse-splicing fitness worked out at 0.00675.

With C82G A111C A120U C150G U176A, the reverse-splicing fitness amounted to 0.00422.

Consider C82G A111C A120U A145C U176G, for which the reverse-splicing fitness turned out to be 0.00462.

With C82G A111C A120U A145C U176C, the reverse-splicing fitness was determined as 0.013.

For C82G A111C A120U A145C U176A, the reverse-splicing fitness turned out to be 0.0111.

Turning to C82G A111C A120G A145U C169A U176C, the reverse-splicing fitness worked out at 0.00997.

With C82G A111C A120G A145U C169A U176G, the reverse-splicing fitness was determined as 0.00439.

For the variant C82G A111C A120G A145U C169A U176A, the reverse-splicing fitness is 0.0115.

On to C82G A111C A120U C150A, for which the reverse-splicing fitness was found to be 0.00807.

As for C82G A111C A120U C150G, the reverse-splicing fitness is 0.00766.

Take C82G A111C A120U C150U: the reverse-splicing fitness is 0.0243.
